5 molecules from article PMC10477243, “Molecular basis of RNA-binding and autoregulation by the cancer-associated splicing factor RBM39” (Nature Communications, 2023) can be followed below.

As usually defined, the Kd is a measure of binding affinity in units of concentration. For orientation: stoichiometry N means the number of molecules, sites or subunits per partner or assembly.

The target in data set [1] is T1, RBM39 RRM2 (UniProt Q14498 250-328).
T1 sequence: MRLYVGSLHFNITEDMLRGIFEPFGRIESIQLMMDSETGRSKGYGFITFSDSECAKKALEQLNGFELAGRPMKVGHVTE
The data set is described as follows: NMR titration; ITC: RRM2/RRM12 in 10 mM Na phosphate pH 6.8, 50 mM NaCl, 2 mM DTT; RRM1 in the same at pH 5.5; 40 C (RRM12 with ssSL3 at 35 C); NMR 200 uM protein in the same. The note with it: protein: recombinant; tags: His tag removed by thrombin.

For data set [2], the target named is T1, RBM39 RRM2. The data set is described as follows: ITC; n=1.18; ITC: RRM2/RRM12 in 10 mM Na phosphate pH 6.8, 50 mM NaCl, 2 mM DTT; RRM1 in the same at pH 5.5; 40 C (RRM12 with ssSL3 at 35 C); NMR 200 uM protein in the same. Conditions: protein: recombinant; tags: His tag removed by thrombin. (In general: In ITC the heat of successive injections is recorded.)

For data set [3], the target named is T2, RBM39 RRM2 F259A (UniProt Q14498 250-328, F259A).
T2 sequence: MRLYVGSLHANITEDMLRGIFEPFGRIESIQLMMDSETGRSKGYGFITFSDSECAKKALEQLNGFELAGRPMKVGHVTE
The data set is described as follows: ITC; n=1.27; ITC: RRM2/RRM12 in 10 mM Na phosphate pH 6.8, 50 mM NaCl, 2 mM DTT; RRM1 in the same at pH 5.5; 40 C (RRM12 with ssSL3 at 35 C); NMR 200 uM protein in the same. The note with it: protein: recombinant.

The target in data set [4] is T3, SF3b155 ULM peptide KSRWDETP
T3 construct: ULM (UHM ligand motif) of SF3b155 (SF3B1)
T3 peptide: KSRWDETP
The data set is described as follows: ITC; PEAQ-ITC (Malvern); Buffer G (sodium phosphate 10 mM pH 7.2, NaCl 50 mM, TCEP 0.5 mM); protein 300 μM in the syringe, ligand (peptide) 30 μM in the cell. The note with it: both partners purified.

B1: BS1 (ssRNA)
RNA: CUCUUUG
With B1, the binding result in data set [1] is on record as “binds”.

B2: mutBS1 (ssRNA)
RNA: CCUCCCA
For the molecule B2, in data set [1], the binding result was “no binding”.

B3: AGCUUUG (ssRNA)
RNA: AGCUUUG
For B3, the figures for the dissociation constant (Kd) in data set [2] and in data set [3] were 9 ± 2 µM and 41 ± 10 µM, respectively.

B4: RBM39 RRM3 (domain or fragment)
chain: VQPLATQCFQLSNMFNPQTEEEVGWDTEIKDDVIEECNKHGGVIHIYVDKNSAQGNVYVKCPSIAAAIAAVNALHGRWFAGKMITAAYVPLPTYHNLFPDSMTATQLLVPSRR
modifications: Construct limits not printed (cited paper); 418-530 is the customary RRM3/UHM construct, covering the annotated RRM3 445-508 and the C-terminus
Take B4: in data set [4], binding was put at a Kd of 19 ± 5 µM, the dH is -20 kcal/mol and the “stoichiometry N” value came out at 0.65.

B5: RBM39 mRRM3 (domain or fragment)
chain: VQPLATQCFQLSNMFNPQTEEEVGWDTEIKDDVIEECNKHGGVIHIYVDKNSAQGNVYVKCPSIAAAIAAVNALHGAWAAGKMITAAYVPLPTYHNLFPDSMTATQLLVPSRR
modifications: Construct limits not printed (cited paper); same conventional limits as wild-type RRM3
Molecule B5 displayed a Kd in data set [4] of over 100 µM.
